# Measurements reported in a protein production outcome set (Wang et al. 2014).
# Experiment: label from the status in PepcDB records
row,Sequence,protein production
1,MNALKNLSLILLLSLAFTGCHNKSSKINDFNLLLYAPEYASGFDIKGAGGKESVLITVRNPWQGADSVTTWLFIVRNGEEVPEGFAGQVLKGDAKRIVAMSSTHIAMLDAIGEVRCITGVSGIDYISNPDIQARRDSIGDVGYEGNINYELLLSLDPDLVLLYGVNGASAMESKLEELDIPFMYVGDYLEESPLGKAEWMVVLSEVTGKREKGEKAFAAIPVRYNALKKKVADSTLGTPSVMLNVPYGDSWFMPSTQSYVARLITDAGGRYIYQKNTGNASIPIDLEEAYLLASDADMWLNVGMANSLDDLKASCPKFTDTRCFKNGEVYNNNARTNTAGGNDYYESAVVNPDIVLRDLVKIFHPELVQEECVYYKQLK,failed
2,MNARLENLMQWLKEKNVEAAFLTSTPNVFYMTNIHCEPHERLLGMFVFQEKEPILICPKMEEGQARNAGWAHEIIGFTDTDRPWDMIAKAIKDRGINANAVAIEKEHLNVERYEELTKLFPNAAFTSAEEKVRELRLIKDEKELSILREAAKMADYAVEVGVNAIKEDRSELEVLAIIEHELKTEGIHKMSFDTMVLAGANSALPHGIPGANKMKRGDFVLFDLGVIIDGYCSDITRTVAFGDISEEQTRIYNTVLAGQLQAVEACKPGVTLGAIDNAARSVIADAGYGDFFPHRLGHGLGISVHEYPDVKAGNESPLKEGMVFTIEPGIYVPNVGGVRIEDDIYITKDGSEILTKFPKELQFVK,failed
3,MNATHEALAIRARPRPASAPSAVLTLAWRAMLKIKHVPFQLFDVTVTPIMFTLLFTFIFGGALAGSPRQYVQYLVPGVLVQTVLFITVYTGVGLNSDIRKGLYDRFRSLPMWQPAPLLGALAGDVFRYSVAGGVILVVGFILGFRPQGGAPGVLAAMALVLVFSFALSWLWIVVGMLVRTPESVMTTSFVFLMPLTFASDIFVGLGTMPGWLQGVVRHNPVTHLANASRDLMHGRPAGADVSWTLLASLVIVAAVAPLAMRLYRKER,failed
4,MNAYYLLAIAVCAEVIATTSMKAVKGLSTPLPLILLITGYAIAFWMLILVMRTIPVGITYAIWSGMGIVMVSVAAYFIYGQKLDLPALLGMGMIVAGVAVIQLFSKTAGH,failed
5,MNCGRIRSLLQGGEATAGPVIYWMSRDQRVADNWALIHAQKLALARSAPLGVLFCLAPRFLGATARQYRFMLKGLEQVRAALNRLDIPFFLVTGDPKGAVAAFTRRHRVSYLVTDFDPLRVKREWKRQVAGEISIPFDEVDAHNIVPCWITSQRQEWGAYTIRPKIHRLLPDFMEPFPPLQRHPFPWQGALPSDAEWRETFTGMTLDESVPEVSWLASGEEAAQAALARFLEDGLAGYATRRNNPAVMGQSGLSPWLHFGQLSAQRVAQAAFAAAAPIESRDAFLEELIVRRELADNFCYYNDAYDRFDGFPEWAQRTLNRHRHDPRPQCYEHDVLEQGQTHDSLWNAAQLEMVRWGRMHGYLRMYWAKKLLEWTSSPEDALMIAIQLNDRYQLDGRDPNGYAGIAWSIGGVHDRPWAERPVFGTIRFMSRDGCRRKFDTDAYERRVIISPATCAGIALCK,failed
6,MNCIIAQSGGPTSVINASVYGLVKANKKLNLYENVYGGLNGIEGILNKKIINLSDLDELQLERFKNSPASGLGSCRYKLKPLSESEDEYLKLLDILNSLNIKAFFYVGGNDSMDTTAKLNAFAKAKNIDIKFFGIPKTIDNDLMHTDHTPGFGSAAKFISTAVLETYLDSKVYTNNGIFIIETMGRDTGWLAASGALATINGNKCADLVYLPERAFSVQSFLTDVARIFKEKKHVYIVASEGLKDENGKFLTETAPNDDSFGHAQLGGVGAYLKNLIIQASITHRVKSLELNTLQRCSMHASSKIDVNEAVMVGQAALEASINSEGGYMVAIRRDSSFPYKSSTFLIEADKIANNIKYFPSEWINEEGNNITEEGLLYLKPLISDFEDRDSLPLYHSFVL,failed
7,MNCKFEGSKVFFTSDTHFYHGNIIRFCNRPFKDVGMMNETIISNWNNTVGLDDIVFHLGDFCLGGSAEWTKILDRLNGKIYLILGNHDLKNLRQGYVDRFEHLAMQMHIEVNKQKIYLNHYPFLCFDGGYKDVWQLFGHVHTRNNNTGIDATRLQHLYPTQYDVGVDNNNFMPVSFAQVKTIIEKQIKQSKMEELEHHHHHH,not failed
8,MNDADSLQDYQRVRQQAIRSLFEIVEGSSEGTVIVDREARIVWINQRYAQRFGLADPAQAIGRPCESVIPGSLLREVVGSGKPILLDMMDSAKDPLVVMRLPIHDDAGEVIGAIGFALLDELRSLSPLVTRYLSMQRELASTRSQLQARQAKYSFSHFVGTSPVSLEVKRRARRGAASEAPVLLLGETGTGKELLAHAIHSASPRAHKAFVSVNAAAIPESLLEAEFFGTAPGAFTGAERKGRPGKLQVAQGGTLFLDEIGDMPLALQGKLLRVLQEKEFEAVGSNEVIRSDIRLVAATSIDLQQAMREGRFRADLYYRLNVLPIEIPPLRQRLDDLPALCESILDSLDHGRLHELGGDALALLARHAWPGNVRELRNVLERALLLADQRLLDAAALGAALGPLQPLPELPRAADDRPVGDFQQAREAFERDLIGRALAQSAGNVVEAAKRLGLGRSTLYKKIVALGMRLDSGTRLEIETN,failed
9,MNDFKGWETRSYLFLALMVGVQLVAFAINPSNWITLVGGLAGIICVNLIAQGKVSNYIFGLISAVIIGYFGLVTRVYAEVLLQSFYIIMDITGLYAWLRASEDGSGQVTEVKVLKGIQWLYAFFTWLLIGVAAYILLGFVNDAQQTLDAITFSVSATGMLLMIKRYQSQFVFWLLGNIFSILLWFRAGTHAGGDYAIFVMYCMYTFNSIFGMFNWLKIKNKMEKNR,failed
10,MNDHTAAIAAHFDQLAPNLDRWRRRNRTYYRDLEKLHRFWIPTGSRVLQVGSGLGDLLATVEPSFGIGIDVSPQAVAIAQQRHPQLQFHCLAAEELTPEAIGNPEPFDAIILTGVLSYLTDIQVVLEQLQAFCHPRTRLILGFHNFLWQPLLTAAEKVGQRSPQPPESWLGMQDVLNLLTLTGYEPIKQGLEHHHHHH,not failed
11,MNDNYEVFAIKYATYQQRRRNENFLPADEHDAGLMPLDYYVWLLKSPARTILVDTGFNPPEAAARNREQSRCPIEALRLLDVAPDDIDDVIITHLHYDHAGNLEKIPRARFHIQDKEVEFATGRCMCHAPLRFAYSPADVSNFIHKLYAGRVVFHDGAGVVAPGVEVLHVGGHTKGLQAVRVMTQRGWVVLASDASHFYENLEAARPFPLVADVAEMLDGFERLVRAAGSPSHVVPGHDPAVMTRYPTHPRDPQGIALLHLPTLA,failed
12,MNDPVDDDAEPTGNHADGVTVADLIAKVAGSDGATPRRSRRRRAAEPDPEPEFEAQAEPAPKPTPEPEILPVAPEPPASADPTEVLQAIRYDEYPGDHAGEYPGDHPDAAYAGAADPNLDAIFEPAFAPMPFAGVTAAHPDLDSCDTEIIPAVPAADEHADLPDTHRDSWRRRTRPQHAGTDDFDEPHRRHPNRKAMIVGRAAAAMIAALTLVLTGGAWQWQSSKNDSLNKVAALDLGSRDILDPNAQFGDENFLIVGMDSRFGENSQMGAGSTDDADGARSDTIMLVNIPASRERVVAVSFPRDLAITPMKCEPWDPETGTYGPIWDEASGTYGPDEVYTETKLNSAFAFGGPKCLVKVIQKISGLSVNRFMAVDFAGFSKMVDALGGVEVCSTTPLEDYELGTVLANAGRQIVDGHTALNYVRARQVTTEYNGDYGRIKRQQLFLSSLLRSLISKDTFFSLSKLNNVVNMFIADSYVDNIKTKDLVDLGQSVQGVNAGRITFVTIPTTGYADEWGNEQPRMDDVRALFDAIINDDPLPGEKNPDNTPVPGTPESTTNTAQAPQSTSPAPQPAHAAPAPGSAEMVDTVTTEPQQVTVKVSNSTGQSGLAATAAGELEQHGFNVTTPDDYPGPLDATTVFFSPGNEEAAATVASSFSNAAIERVAGLGDVVQVVLGTDFMAVNPPSPSGSAIQVKLVRGTSSTPTQLPEDLSVTNAADATCE,failed
13,MNDSAPRRVRVRAPELIGKGGWLNTGDKQYTLADLRGRIVVLDFWTFCCINCLHVLDELRELEEKHRDTVVIIGVHSPKFVHEAEHQAVVDAVERYGVEHPVLDDPELATWKQYAVRAWPTLVVIDPEGYVVAQHAGEGHAHAIAALVAELEAEHEAKGTLRRGDGPYVAPEPEPTVLRFPGKALLLPSGNFLVSDTTRHQLVELAADGESVVRRIGSGIRGFADGPADAASFSEPQGMTLLDEDVVVVADTVNHALRRLDLATGEVTTLAGTGRQWWQGSPASGPAREVDLSSPWDVAVFGGRVWIAMAGGAPAVDVRPGGGDGRGRGGHDERGAGRRTGLEHHHHHH,not failed
14,MNDTPDDTFVSGYLLYLLAASSEEASAQFHDHIRAQGLRVPEWRVLACLVDNDAMMITRLAKLSLMEQSRMTRIVDQMDARGLVTRVADAKDKRRVRVRLTDDGRALAESLVASARAHETRLLSALADTDAARIKGVLRTLLDVLDRPRESR,not failed
15,MNDVASTKSRVAAVSVVASATMAAAKFAVGIAIGSLALISEALHSSIDLVATIITWFVVRISDRPADDAHHYGHGKIESLSALGVIAMLYVLAGGILVEAYSRLREGAAPPTFSYLAFVILGVDIVVNLWRAWALHRTAVATKSQALAADALHFASDVLGSFAVIAGLALAAAGFHWGDAAAAIGVAVMISLLGLRLGRSTIQTLLDRAPEGVSDKAREAIGAVPGVVGVERLRARMVGPTHFIDALVEVPRTYPIDRIDEIKRKAQESMSEIFGDADLTFTAIPVARDNESVRERIMVIARNSGLAVHHVTVHDLGGHKLIVSIDLEVDGNMPLIEAHDIAHKLEDHIREDFGADVEVDTHIEPLEPELPQGSDAEPARVEEIRLALRRLTHDGAIHDVHSVRVRDTDAGEIVNFHCYADPSMSVISVHDHVDEIERKLRAKFPSVKRVISHAEPPNAD,failed
16,MNEADYLRLLTRQAEQANDFLSNARKWDRERWVCQRFLEALNVPYRQEDFAAPGEQPPDVLFKGAGFEVFFVLDEGRRLNEEWREELTRRRQAVSLRQLIRREERPQRIAAAELQARLAPTLRKKAHNYSERGIDHGELDLLAFVNLKRAVPDFNTPFPPPTEYLRQGWRSLSMVGPTFARVLFAHSGAPEFLRANLGRSILFDAGVGL,not failed
17,MNELDVREFYQKQFELSNYDINTERWLEQLAKEVKEQIGYPFQSMLELGAGNGGFARAMSNLNVKMTTVELVPELVMFAKEHSTNDIEVHCADFYKINFEEKFDIVTYLDGFGVGTDEEQLFLLKRIYNWLKDDGCALIDIYQPLYWEKANGQEMPIYSAMRKYEYDSENARMLDHWWEKDSSNDIVTQSLRCYTIDEISNLCAEARFSIVGIFPGGAYDFEERKYKEQASLNECLSYRIKVKKSKD,failed
18,MNEPQAFAQTDAEWLASINRARDWFQGPLGSLMLAEERRLLCDELTRYFGGYLVHYGPHAELPPSTGQIQRGVRLGPPLPGVDIACEEGAWPLSEHAADVVLLQHGLDFCLSPHRLLREAARTVRPGGHLLLIGINPWSLWGIRHYFAGDALRQARCIPPSRACDWLNLLGFALEKRRFGCYRPPLASAAWQSRLARLERWGDAWQSSGAGFYLLVARKLVVGLRPLRQSKREPRGQLVPMPVAKVSRRDSEI,failed
19,MNEREAKMYELEFPAPDVASDGVDGPTLIIAMQGYADAGLAVEASADHLLSALEHRPVAVFNNDELIDYRSRRPAVTIDHNIVVDANELKLSMDVLRDSNGTPFLLLSGPEPDLRWDAFSQAVADLVRRFGVRRTICIYAAPMTVPHTRPLIVSAHGNSLDLIKHHFSIDSKVTIPGSASLHIERLLNKNNIDVAGYTAHVPHYLSASAYPLATLKLLEAITTSTNLDFPLKTLEADAQKTALQVEEQVAGSQEIESVVKILEQQYDE,failed
20,MNESSTHDSVADDPTEVSTDTVLDIALSLFSELGFSDAKLEAIAKKSGMSKRMIHYHFGDKRGLYICCLEEAVRRLRPTAEEMYLASAVPVEGVRTIVEAVFHRYVQHPEAVRMLQMENLHHYGKVAEASPLSDQSAITLQLDRLLMLGQDAGAFRPGISAQDVFTLIASIAVFRINSRSTTLNLYGIDMMNGDNTDGMRRMAVDTVLAFLTSNLKSADEDSYLSRPLLSTVTEHVDEEGSYEVAADPFS,not failed
